According to patent US20230148181A1, “ENZYME FOR THE CONVERSION OF CHLOROGENIC ACID INTO ISOCHLOROGENIC ACID” (UNIVERSITE DE LORRAINE, priority 2020, published 2023):

Legend:
Format in all cases: biochemical
[1] = bioconversion of pure CGA into 3,5-DCQ by P. pastoris culture or supernatant expressing IbGDSL
Procedure: The bioconversion of CGA into 3,5-DCQ in vivo requires the establishment of a highly metabolically active P. pastoris culture. The yeasts are cultured in nutrient medium containing a 100 mM potassium phosphate buffer with a pH adjusted to pH 6.0. This allows the medium in which the enzyme obtained from the microbial cells and the substrate will be in contact, to be maintained at pH 6. After establishing an inoculum of 25 mL of yeast culture overnight at 30° C. under agitation of 250-300 rpm, this is used to inoculate a volume of 100-200 mL of nutrient medium in such a way as to obtain an OD600nm around 1. To this culture 0.5% methanol is added in order to initiate the production of IbGDSL. The addition of methanol is repeated every 24 hours to maintain the level of induction of protein production. […]
The first step of this experiment is to show whether the IbGDSL produced by P. pastoris is capable of converting CGA into 3,5-DCQ knowing that the original enzyme could potentially be glycosylated three-fold and that the glycan trees generated by P. pastoris are not comprised and organised in the same way as the plant glycan trees. These differences could directly influence the stability and prevent the proper activity of the enzyme. To do so, supernatants from two P. pastoris cultures, one transformed with the empty vector (negative control) and the other with the vector carrying the gene encoding IbGDSL were recovered after 3 days of methanol induction. These supernatants were incubated at pH 6.5 with 10 mM chlorogenic acid for 30 minutes at 36° C. The enzymatic reaction was then stopped with the addition of ethanol and analysed by UPLC-MS.
The second step of this experiment is to show whether the CGA directly added to the P. pastoris culture medium expressing the enzyme could be directly converted into 3,5-DCQ. The objective is to avoid the purification step of the enzyme if necessary.
[…] This experiment was conducted at 30° C., the ideal temperature for the culture and growth of the P. pastoris organism.

[2] = bioconversion of chlorogenic acid from green coffee (Coffea canephora) extract into 3,5-DCQ by IbGDSL from P. pastoris
Procedure: The bioconversion reaction of CGA into 3,5-DCQ was also carried out from a green coffee (Coffea canephora) extract whose composition is indicated in FIG. 7A. This green coffee extract, comprising a CGA concentration equivalent to 10 mM and bioconverted over a period of 50 hours, at 30° C. and pH 6, led to a new extract whose composition is shown in FIG. 7B. […] Furthermore, no other caffeic acid-containing substrate than chlorogenic acid is biotransformed as no decrease in peaks is observed except for that corresponding to CGA. Bioconversion of green coffee extract with IbGDSL increases the 3,5-DCQ content initially present in the extract 4.5-fold (200 mg/L at T0 and 900 mg at T50h) for a starting CGA concentration equivalent to 10 mM. Bioconversion of CGA into 3,5-DCQ from the green coffee extract was performed after 4 and 7 days, in order to analyse the effect of a reaction with GDSL taking place over a long period of time (FIG. 9). […] The concentration of the IbGDSL enzyme obtained by fermentation of P. pastoris accelerates the reaction speed of the conversion of CGA into 3,5-DCQ (FIG. 10). It is noticed that the same level of 3,5-DCQ concentration can be obtained for enzyme concentration factors of 10-, 20- and 37-fold after 60 h of bioconversion.

[3] = in vitro enzyme assay of purified recombinant IbGDSL (produced in N. benthamiana): conversion of CGA into 3,5-DCQ, UPLC-MS
Procedure: The in vitro enzyme assays are conducted on the purified recombinant enzyme produced in a plant system. After 6 days of co-culture, N. benthamiana leaves agro-infiltrated with the vector carrying the gene of interest, are harvested and ground in extraction buffer (20 mM sodium phosphate, 0.5 M NaCl, pH 7.4). The extract is then centrifuged and the supernatant containing all the soluble proteins including IbGDSL is recovered and sterilised by 0.2 μm filtration. Protein purification is then conducted according to the supplier's instructions on Nickel columns (HisTrap HP-GE HEALTHCARE). […]
Enzyme assays are performed in a 50 μl volume with 200-400 ng of the purified protein (that is a few μl). The optimal reaction pH will be determined using a polybuffer (0.1 M Tris/20 mM MES/0.1 M acetic acid) from which a pH range of 4 to 9 will be constructed. […]
3,5-DCQ quantification is done by measuring the area of the peak of a 3,5-DCQ standard at 330 nm. […] The contents of the other compounds (chlorogenic acid and the other DCQ isomers) are expressed as 3,5-DCQ equivalents. The content is calculated according to the following formula for a compound: […]
A pH range between 4 and 9 was established to determine the optimal pH for the conversion of CGA into 3,5-DCQ by virtue of IbGDSL. […] From the curve obtained it was determined that the optimal reaction pH is between 6 and 7 (FIG. 3A). […]

B1: IbGDSL: recombinant GDSL esterase/lipase enzyme of Ipomoea batatas (SEQ ID No. 1) converting chlorogenic acid into isochlorogenic acid (protein)
chain: MAAAAPSSSLLGVLMLLASIGYAAACYSAVFGFGDSLTDAGNLIRLEPDGTVPHMYFPPYGETYFDKPTGRCSDGRLIVDLIAQHYGLPLPPPSIPASLEGDKNRLRAGVNFAVVGSRALDAQFYEQRDIFDTVTNVSMTDQLNWFKELLPSLCSSPHDCKELLDGSLFVLGEFGGNDYTHSLLSGKGINVIRPFIPIVTRAIAQAVHELVELGARTVMIPSVLPLGCAASYLTYYPSPNPDDYDELGCLIWVNEMASYHNQLLQQQLAHVRELHPYANIVFADIYNAAMEVYQGPDTYGFSGGALRACCGGGGPYNFNTSAQCGNEGATACDNPSSYVNWDGYHLTEAAYQCITTGLLEGPYTYPRMKNLCRFDSRKTSRVAQI
modifications: Ipomoea batatas
- bioconversion yield of CGA into 3,5-DCQ ([1]; 10 mM CGA added directly to culture, pH 6, 30° C., 3 days, stoichiometric limit 50%): around 44%
- maximum yield of conversion of pure CGA into 3,5-DCQ ([1]; after 50 hours of bioconversion, 5- and 7.5-mM starting CGA): 32%
- 3,5-DCQ content, maximum amounts ([1]; after 50 hours of bioconversion, starting pure CGA 7.5 and 9 mM): ~1.2 g/L
- activity of enzyme secreted in P. pastoris supernatant (3,5-DCQ peak) ([1]; supernatant after 3 days methanol induction, pH 6.5, 10 mM chlorogenic acid, 30 minutes at 36° C.): functional
- product specificity of the bioconversion ([2]; green coffee extract equivalent to 10 mM CGA, 50 hours, 30° C., pH 6): exclusively catalyses the formation of 3,5-DCQ
- 3,5-DCQ content at T50h ([2]; starting CGA equivalent to 10 mM, 30° C., pH 6): 900 mg
- increase of the 3,5-DCQ content initially present in the extract ([2]; starting CGA equivalent to 10 mM, T50h versus T0): 4.5 fold
- CGA concentration from which a slowing down of the enzyme activity is observed ([3]; pH 6.5, 30 minutes of incubation at 36° C.): ≥ 10 mM
- temperature of maximum conversion ([3]; purified IbGDSL, 10 mM CGA, pH 6.5, temperature range 15-45° C.): 37 °C
